Experiment: yeast display, Sf9 membrane polyspecificity reagent, FACS + sequencing; frameworks hold sequencing errors
Method in brief: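 Synthetic nanobody libraries on Saccharomyces cerevisiae BJ5465 were galactose-induced for 36–48 hours, stained 1 hour at 4 °C with 10% biotinylated, detergent-solubilized Sf9 membrane reagent and enriched on streptavidin microbeads. FACS then separated cells into low and high (top ~1%) gates by anti-HA (expression) and streptavidin (reagent binding) fluorescence. Genes were colony-PCR amplified, MiSeq 2 × 250 sequenced and CDR-length filtered. A clone's polyreactivity label is that of its gate of origin.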

Sequence	polyreactivity (PSR sort gate)
QVQLVESGGGLVQAGGSLRFSCAASGINFYFNAMGWYRQAPGKERELVAVITSGGSTNYADSVKGRFTISRDNAKNTVYLQMNSLKPEDTAVYYCATDKSYSSWSAQYVYWGQGTQVTVSS	low polyreactivity
QVQLVESGGGLVQAGGSLRLSCAASGSTFVRYAMGWYRQAPGKERELVAAISKSGGSTYYADSVKGRFTISRDNAKNTVYLQMNSLKPEDTAVYYCNADVYKNSKFRIMGYWGQGTQVTVSS	high polyreactivity
QFQLVESGGGLVQAGGSLRLSCAASGVSNALGWYRQAPGKERELVAAISRSGGSTYYADSVKGRFTISRANAKNTVNLQMNSLKPEDTAVYYCAVGYTYVYRYSSHKYDYWGEGTQVTVSS	high polyreactivity
QVQLVESGGGLVQAGGSLRLSCAASGFTFGIYDMGWYRQAPGKERELVAAISWRGVSTYYADSVKGRFRISRDNAKNTVYLQMNSLKPEDTAVYYCNAVDTDGDLYPINYPYDYGYDYWGQGTQVTVSS	low polyreactivity
QVQLVESAGGLVQAGGSLRLSCAASGRTFWSYAMGWSRQAPGKERELVAAINSGGSTYYADSVKGRFTISRDNAKITVYLQRNSLKPEDTAVYYCDADTWYGFDWGVGTQVTVSS	high polyreactivity
QVQLVESGGGLVQAGGRLRLSCAASGRIFYLNAMGWYRQAPGKETELVAAINTSGDATYYADSEKGRFTISRDIAKNTVYLQMNSLKPEDTAVYYCAAYVIGPDQFIYDYWGQGPQVTVSS	low polyreactivity
QVQLVESGGGLVQAGGSLRLSCAASGFTFGRNTMGWYRQAPGKERELVAAIDSGGNTYADSVKGRFTISRDNAKNTVYLQMNSLKPEDTAVYYCAVDVGEFSSYGYWGQGTQVTVSS	low polyreactivity
QVQLVESGGGLVQAGGSLRLSCASSGSTFYTNAMGWYRQAPGKESEFVDAISWSGSSTYADSVKGRFTISRDNAKITVYLQMNSLKPEDTAVYYCAKATSSLYHYRYDYWGQGTQVTVSS	low polyreactivity
QVQLVESGGGLVQAGGSLRLSCAASGRTFGLYAMGWYRQAPGKERELVAAIDQSTGSTYYADSVKGRFTISRDHAKNTVYLQMNSLKPEDTAVYYCAAEEASTVRYYWYDYWGQGTQVTVSS	high polyreactivity
QVQIVESGGGLVQAGGSLRISCPASGRTFNYNAMGWYRQAPGKERELVAAITSGASTNYADSVKGRFTISRDNAKNTVFLQINRLKPEDTAVYYCAKATYPHEYDYWGQGTQVNVSS	low polyreactivity
QVQLVESGGGLVQAGGSLRLSCAASGRIFGYYTMGWYRQAPGKERELVAAINGRGTSTYYADSVKGRFTISRDNAKNTVYLQMNSLKPEDTAVYYCAARYTRTVGYDYWGQGTQVTVSS	high polyreactivity
QVQLVESGGGLVQAGGSLRLSCAASGRTFGQYAMGWYRQAPGKERELVAAITGGGSTNYADSVKGRFTISRDNAKNTVYLHMNSLKPEDTAVYYCAAKARSYWYPRLYIYEGDYWGQGTQVTVSS	low polyreactivity
QVQLVESGGGLVQAGGSVRLSCAASGSTFLHYAMGWYRQPPGKERELVAAITDSGGNTYYADSVKCRFTISRDNAKNTVYLQMNSLKPEDTAVYYCAAEYIFHYYDIFDYWGQGTQVTVSS	high polyreactivity
QVQVVDSGGGLVQAGGSLRLSCAASGRTFIGNAMGWYRQAPGKERELVATITTSAGTTYYADSVKGRITISRDNAKITVYVQMLSLKPEDTAVYYCAADASQSEGDYWGQGTQVTVAS	high polyreactivity
QVQLVESGGGLVQAGGSLRLSCAASGSIFGGYAMGWYRQAPGKERELVAAISSGGSTYYADSVKGRFTISRDNAKNTVYLQMKSLKPEDTAVYYCATSTYAYRRNSYYYTRPRFGYWGQGTQVTVSS	high polyreactivity
QVQLVESAGGLVQAGGSLRLICAASGFTSNVYTMGWYRQAPGKERELVAAITSGGSTNYADSVKGRFTISRDNAKNTVYLQMNSLKPEDTAVYYCNTDVKEYFHHEGYPLRWEYDYWGQGTQVTVSS	low polyreactivity

Sequence	polyreactivity (PSR sort gate)
QVQLVESGGGLVQAGGSLRLSCAASGRTIGLNGMGWYRQAPGNERELVAGISWSGGSTNYADSVKGRFTISRDNAKNTVYLQMNSLKPEDTAVNYCPPDFVYYVVNDFGWSYAYEYWGQGTQVTVSS	low polyreactivity
QVQLVESGGGLVQAGGSLRLSCAASGRIFSPYAMGWYRQAPGKERELVAAISFSAASTYYADSVKGRFTISRDNAKNTVYLQMNSLKPEDTAVYYCAADYWGQGTQVTVSS	high polyreactivity
QVQLVESGGGLVQAGGSLRLSCAASGITFYLYALGWYRQAPGKERELVAAISSSGGRTYYADSVKGRFTISRDNAKNTVYLQMNSLKPEDTAVYYCAARRYGVPPTYDYWGQGTQVTVSS	high polyreactivity
QVQLVESGGGLVQAGGSLRLSCAASGNTYGRYAMGWYRQAPGKERELVAAISSSGTSTYYADSVKGRFTISRDNAKNTVYLQMNSLKPVDTAVYNCGAVYWTFWGTIASRYDYWGQGTQVTVAS	high polyreactivity
QVQLVESGGGLVQAGGSLRLSCAASGIIFAYYTMGWYRQAPGKLRELVAAISWNGGRTYYADSVKGRFTISRDNAKNTVYLQINSLKPEDTAVYYCAARDASSFLRSYYWGQGTQVTVSS	high polyreactivity
QVQLVESGGGLVQAGGSLRLSCAASGSTFYVYGMGWYRQAPGKERELVATISSSGAITYYADSVKGRFTISRDNAKNTVYLQMNSLKPEDTAVYYCARTGSLLSQVWYTYWGQGTQVTVSS	low polyreactivity
QVQLVESGGGLFQEGGSLRLSCAASGSTFANYVMGWYRQAPGKEREFVAGITRSGGSTYYADSVKGRFTISRDNAKNTVYLQMNSLKPEDTAVYYCNKVRRASYYYEYDYWGQVTQVTVSS	low polyreactivity
QVQLVESGGGLVQAGGSLRLSCAASGRIFIPYAMGWYIQAPGKERELVAAISSSGGSTYYADSVKGRFTISRDTAKNTVYLQMNSLKPEDTEVYFCAARLYWGYAYENYSSLFEYDYWGQGTQVTVSS	low polyreactivity
QVQLVESGGGLVQAGGSLRLSCAASGSIFYRYAMGWYRQAPGKERELFATITQSGVSTYYADSVKGRFTISRDNAKNTVFLQRISLKPEDTAVYYCAASYYYTIGPYLRKFDWGQGTQVTVSS	low polyreactivity
QVQLVESGGGLVQAGGSLRLSRAASGSIFKYYAMGWYRQAPGKERELVAAITYSGGSTFYADSVKGRFTISRDNAKNTVYLQMNSLKPEDTAVYYCNKVYKSYYWGGYDWGQGTQVTVSS	high polyreactivity
QVQLVESGGGLVQAGGSLRLSCAASGSTFRYYVMGWYRQAPGKERELVAAISSSGGSTYYADSVKGRFTISRDNAKNTVYLQMNSLKPEDTAVYYCARDKGYVSYRYNYWGQGTQVTVSS	high polyreactivity
QVQLVESGGGLVQAGGSLRLICAASGYTFGHYVMGWYRQAPGKERELGAAISRGGGSTSYADSVKGRFTISRDNAKNTVYLQMNSLKPEDTAVYYCAKKSTYFKWSRMYWGQGTQVTVSS	high polyreactivity
QVQLVESGGGLVQAGGSLRLSCAASGSTFVFYAMGWYRQAPGKERELVASISFRGGSTRYADSVKGRFTISRDNAKNTVYLQMNSLKPEDTAVYYCNARPFYRYYYWGQGTQVTVSS	high polyreactivity
QVQLVESGGGLVQAGGSLRLSCAASGGIFWVYAMGWYRQAPGKERELVAAISNSDTSTSYADSVKGRFTISRDNAKNTVYLQMNSLKPEDTAVYYCNADSPSLSGDYWGQGTQVTVSS	low polyreactivity
QVQLVESGGGLVQAGGSLRLSCAASGLTFYGNARGWYRQAPGKERELVADISLSGGRTFYADSVKGRFTISRDNAKHTVYLQMNSLKPEDTAVYYCANTYTSGYHRRYDYWGQGTQVTVSS	low polyreactivity

— the nanobody polyreactivity screen of Harvey et al. (2022)
